Source: patent US7488573B2, “In vivo angiogenesis assay” (Children's Hospital Medical Center, priority 2002, dated 2009)

Tested on: PM vascular system
Assay: In vivo pupillary membrane (PM) angiogenesis assay in rat pups, transcorneal injection
Design: species or system Sprague-Dawley rat
Details: after 24 hours
Protocol: A Sprague-Dawley rat pup, available from Taconic Farms (German Town, N.Y.), aged postconception (p.c.) day 30.5 to p.c. 34.5, was subdued with metaphane and subsequently anaesthetized with an intramuscular injection of ketamine and xylazine at 1.6 mg/g and […] respectively. The depth of anesthesia was monitored by paw pinch response and where necessary, the subject pup was maintained under anesthesia with additional doses of ketamine and xylazine intraperitoneally. The right eyelid of the rat pup was parted at the suture using a microdissecting vanna (Storz, St Louis), the eyeball gently raised, and the eyelids folded underneath to permit illumination of the eye with optic fibre light guides. The local anesthetic tetracaine hydrochloride (0.5%) was applied to the eyeball prior to parting of the eyelids. The rat pup was then placed in a silastic body mold designed to reduce movement, and kept warm with an overlaid heating element from a battery powered boot warmer (L. L. Bean, Maine). The liquid phase for the water immersion microscope objective was provided by addition of a bead of phosphate-buffered saline between the eyeball and the objective. Capillaries of the pupillary membrane were readily detected by searching through the focal axis. An eye holder as shown in FIG. 1 held the eyeball to limit movement, and to illuminate the interior of the eye.
A 5× air objective of a Zeiss Axiophot microscope (Zeiss, Thornwood, N.Y.) was positioned above the cornea of an anaesthetized rat. A beveled glass needle mounted on a micromanipulator was axially apposed to the eye holder and in this position could penetrate the cornea for delivery of the test substance directly onto the pupillary membrane.
A defined volume of a test substance was delivered to the anterior chamber using a Nanoject Variable injector (Drummond, Pa.).
After the predetermined period of angiogenic progress, the rat pup was humanely sacrificed. The treated PM was prepared as a whole mount specimen by dissecting the retina, sclera, choroid and cornea away from the lens, iris diaphragm, hyaloid vessels and pupillary membrane. The latter tissue group was then fixed overnight in 2% glutaraldehyde in 0.1 M cacodylate pH 7.4, 0.1 M sucrose. After fixation, the tissue was washed in buffer alone and dehydrated in an ethanol series (50%, 70%, 80%, 90%, 95% and 100%). The specimens where then treated for 1 hour in hexamethyldisilazane (Polysciences Inc. Pennsylvania) and then air dried overnight. After drying, they were mounted and sputter coated with approximately 100 angstroms of gold-palladium. Specimens were visualized using a JOEL SEM 840 scanning electron microscope.
The angiogenic effect on the cellular/vascular PM system was observed and recorded with imaging and recording means. […]

B1: Ang2: biotinylated recombinant human Ang2, available from Calbiochem (protein, UniProt O15123 19-496, looked up)
Angiopoietin-2: YNNFRKSMDSIGKKQYQVQHGSCSYTFLLPEMDNCRSSSSPYVSNAVQRDAPLEYDDSVQRLQVLENIMENNTQWLMKLENYIQDNMKKEMVEIQQNAVQNQTAVMIEIGTNLLNQTAEQTRKLTDVEAQVLNQTTRLELQLLEHSLSTNKLEKQILDQTSEINKLQDKNSFLEKKVLAMEDKHIIQLQSIKEEKDQLQVLVSKQNSIIEELEKKIVTATVNNSVLQKQQHDLMETVNNLLTMMSTSNSAKDPTVAKEEQISFRDCAEVFKSGHTTNGIYTLTFPNSTEEIKAYCDMEAGGGGWTIIQRREDGSVDFQRTWKEYKVGFGNPSGEYWLGNEFVSQLTNQQRYVLKIHLKDWEGNEAYSLYEHFYLSSEELNYRIHLKGLTGTAGKISSISQPGNDFSTKDGDNDKCICKCSQMLTGGWWFDACGPSNLNGMYYPQRQNTNKFNGIKWYYWKGSGYSLKATTMMIRPADF
modifications: biotin
notes: biotinylated recombinant human Ang2, available from Calbiochem
increase in the width of flattened vessels present in the whole mount preparations (rat pups A5, Ang2 10 nanograms/ml anterior chamber, compared to the control): 2.1 fold
staining by HU177 antibody (collagen remodeling of the basal lamina of the PM) (rat pups A5, Ang2 10 nanograms/ml anterior chamber, control showed no staining): significant staining
number of mitotic cells in the PM blood vessels (rat pups A5, injection into anterior chamber (VEGF 1 nanogram/ml; Ang2 10 nanograms/ml), compared to the control (un-injected eye)): significant increase
diameter of capillary vessels (rat pups A5, injection into anterior chamber (VEGF 1 nanogram/ml; Ang2 10 nanograms/ml; anti-Tie2 50 nanograms/ml), compared to the control): dramatic increase
